Patent US20260193333A1, “METHODS OF INHIBITING FIBRIL GROWTH” (University of Tennessee Research Foundation, priority 2023, published 2026)

How the values were obtained:
rVλ6WIL fibrils = test: rVλ6WIL (WIL) fibril extension assay with biotinylated rVλ6WIL monomer; format: biochemical; details: for % Change (at 2 μM) in rVλ6WIL fibril extension: at 2 μM sample, 20 nM Biotin-WIL, blocking agent BSA, compared to control sample
Experimental: A WIL fibril extension assay was developed for analyzing in vitro amyloid fibril formation using biotinylated WIL monomers.
First, a high binding 96-well ELISA plate was coated with 0.83 μM sonicated rVλ6WIL synthetic fibrils ([…]). The fibrils were then dried in a 37° C. oven. Subsequently, the plate was washed twice with wash buffer (PBS+0.05% tween 20). The plate was then blocked with […] of 1% BSA in PBS for 1 hour at 37° C. The blocking buffer was then removed and the plate was washed twice with wash buffer. For positive control wells, 100 mL of 20 nM biotinylated rVλ6WIL monomer (biotinylated with EZ-link Sulfo-NHS-biotin (ThermoFisher Scientific) following their protocol) in 1% BSA+0.05% tween 20 in PBS (BSAT) was added per well. For test wells, 100 mL of a mix of 20 nM biotinylated rVλ6WIL monomer plus an amyloid-reactive peptide, an amyloid-reactive antibody, or an amyloid-reactive antibody-peptide fusion protein (2, 0.5, 0.05, 0.01, 0.005 and 0.001 […]) in BSAT was added per well. Background control wells (containing no fibrils) contained […] of 20 nM biotinylated rVλ6WIL monomer in BSAT added to them. The microplate was then incubated for 1 hour at 37° C. The plate was then washed twice with wash buffer. 100 mL of a 1:1000 dilution of europium-labeled streptavidin (Perkin Elmer) in BSAT was then added into each well and incubated for 1 hour at 37° C. Next, the plate was washed 3× with wash buffer. To quantify amyloid fibril formation, […] of enhancement solution (Perkin Elmer) was added to each well and time-resolved fluorescence emission was measured in each well.
The methods of Example 1 were carried out in the presence of the amyloid reactive peptide p5R, an amyloid-reactive antibody-peptide fusion protein, an amyloid-reactive humanized antibody, or a control.
Assay conditions included the following: 20 nM biotinylated WIL monomer, 1 hour incubation using BSA as a blocking agent, and 50 μL/well of 10 μg/mL fibrils (0.83 μg).

[1] = target: rVλ6WIL synthetic fibrils; test: fibril extension assay: 20 nM biotin-WIL monomer binding to plate-coated rVλ6WIL fibrils in the presence of 2 µM sample, BSA block, europium-streptavidin

Row | % Change (at 2 µM) of rVλ6WIL fibril extension against control [1] | Molecule | % Change (at 2 μM) in rVλ6WIL fibril extension (rVλ6WIL fibrils) | rVλ6WIL fibril extension in the presence of the peptide (rVλ6WIL fibrils; concentrations between 0.001 μM to 2.0 μM, FIGS. 2A, 2B) | extension of rVλ6WIL fibrils in the presence of the antibody (rVλ6WIL fibrils; beginning at a concentration of 0.01 μM, FIGS. 4A, 4B) | concentration at which significant attenuation of rVλ6WIL fibril extension begins (rVλ6WIL fibrils; tested 0.001 to 2 μM) | concentration of maximum level of rVλ6WIL fibril extension inhibition (rVλ6WIL fibrils; tested 0.001 to 2 μM)
1 |  | Amyloid reactive peptide p5R: amyloid-reactive peptide p5R, SEQ ID NO: 2, RAQRAQARQARQAQRAQRAQARQARQ (RAQRAQARQARQAQRAQRAQARQARQ) | +12% | insufficient to inhibit rVλ6WIL fibril extension |  |  | 
2 | 12% | RAQRAQARQARQAQRAQRAQARQARQ [amyloid-reactive peptide p5R] |  |  |  |  | 
3 | -89% | amyloid-reactive humanized antibody (VH SEQ ID NO:55 / VL SEQ ID NO:36) (antibody, V domains shown) VH: QVQLQESGPGLVKPSETLSLTCTVSGFSLSSYGVSWIRQPPGKGLEWLGVIWGEGSTNYHPNLMSRVTISVDTSKSQVLFKLSSVTAADTAVYYCATLDYWGQGTSVTVSS VL: DVVMTQSPLSLPVTLGQPASISCRSSQSLVHRSGNTYLHWFQQRPGQSPRLLIYKVSNRFSGVPDRFSGSGSGTDFTLKISRVEAEDVGVYFCFQTTYVPNTFGGGTKLEIK | −89% |  | significantly attenuated | 10 nM | 2000 nM
